Reference: US20190194350A1 (UNIVERSITAT STUTTGART, published 2019)
Values joined by “and” are separate entries in the source; they are usually repeats but may differ in a detail not shown here. Equal entries are not always repeated.

How the values were obtained:
[1] = biological target: T1, HER3-Fc fusion comprising the extracellular domain (aa 27-599) of human HER3 (human, UniProt P21860 27-599); assay: ELISA, coated HER3-Fc (aa 27-599), anti-His-HRP
T1 construct: also called HER3-Fc fusion protein; not shown: Fc part

[2] = biological target: T2, HER3 on HER3-expressing tumor cells (human, UniProt P21860 20-1342); assay: cell-based or functional assay
[3] = biological target: T3, CD3 on CD3-expressing Jurkat cells (human, UniProt P07766 23-207); assay: flow cytometry, CD3-positive Jurkat cells
T3 construct: whole, on cells; also called human CD3

[4] = biological target: T2, HER3 on HER3-expressing tumor cells; assay: flow cytometry, HER3-expressing MCF-7 cells
[5] = biological target: T3, CD3 on CD3-expressing Jurkat cells; assay: flow cytometry, CD3-expressing Jurkat cells
HER2-ECD protein = biological target: T4, HER2-ECD protein (UniProt P04626 23-652, limits assumed); assay: ELISA, immobilized HER2-ECD
T4 construct: extracellular domain

EGFR on tumor cells [6] = biological target: T5, EGFR on tumor cells (human, UniProt P00533 25-1210); assay: flow cytometry, FaDu cells (very high EGFR, low HER3; the filing says binding is most likely through the hu225 moieties); FaDu cells
T5 construct: whole, on cells; also called EGFR on FaDu and SKBR-3 cells

[7] = biological target: T6, HER3-His (HER3 aa 27-599 of the extracellular domain fused C-terminally with a hexahistidyl-tag) (human, UniProt P21860 27-599); assay: ELISA, coated His-tagged HER3 ECD (aa 27-599)
T6 construct: also called soluble His-tagged HER3; His-tagged extracellular domain of HER3; not shown: C-terminal hexahistidyl-tag

[8] = biological target: T6, HER3-His (HER3 aa 27-599 of the …); assay: sandwich ELISA: coated EGFR-Fc, serial dilution of Db3-43xhu225-Ig, then 300 nM HER3-His detected by anti-His-HRP
[9] = biological target: T2, HER3 on HER3-expressing tumor cells; assay: flow cytometry, HER3-positive MCF-7 cells; MCF-7 cells
EGFR on tumor cells [10] = biological target: T5, EGFR on tumor cells; assay: flow cytometry, SKBR-3 cells (carry EGFR and HER3; bispecific, number not split between the two targets); SKBR-3 cells (EGFR and HER3 in similar ranges)
[11] = biological target: T2, HER3 on HER3-expressing tumor cells; assay: as above
[12] = biological target: T7, mouse HER3-Fc fusion protein (extracellular region of mouse HER3 fused to a human Fc region) (mouse, UniProt Q61526 20-641); assay: ELISA, immobilized mouse HER3 extracellular region fused to human Fc, scFv detected with anti-His-tag antibody
T7 construct: extracellular domain; not shown: human Fc region
T7 sequence (Q61526 20-641): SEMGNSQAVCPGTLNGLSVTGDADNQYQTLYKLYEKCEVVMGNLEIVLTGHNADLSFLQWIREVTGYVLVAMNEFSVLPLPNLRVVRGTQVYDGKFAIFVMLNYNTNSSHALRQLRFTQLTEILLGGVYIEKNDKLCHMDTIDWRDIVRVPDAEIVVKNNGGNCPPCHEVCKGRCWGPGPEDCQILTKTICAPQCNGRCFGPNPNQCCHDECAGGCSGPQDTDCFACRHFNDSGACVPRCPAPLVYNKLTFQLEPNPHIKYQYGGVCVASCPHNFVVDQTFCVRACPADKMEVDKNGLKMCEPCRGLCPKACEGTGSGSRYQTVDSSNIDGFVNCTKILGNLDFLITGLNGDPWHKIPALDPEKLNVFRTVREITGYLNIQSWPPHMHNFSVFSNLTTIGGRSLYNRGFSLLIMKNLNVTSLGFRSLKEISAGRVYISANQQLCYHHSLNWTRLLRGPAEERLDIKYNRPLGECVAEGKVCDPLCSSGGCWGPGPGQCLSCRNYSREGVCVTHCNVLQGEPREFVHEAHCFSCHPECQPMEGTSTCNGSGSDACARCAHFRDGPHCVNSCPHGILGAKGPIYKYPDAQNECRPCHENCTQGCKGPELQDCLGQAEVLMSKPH

T3 sequence (P07766 23-207): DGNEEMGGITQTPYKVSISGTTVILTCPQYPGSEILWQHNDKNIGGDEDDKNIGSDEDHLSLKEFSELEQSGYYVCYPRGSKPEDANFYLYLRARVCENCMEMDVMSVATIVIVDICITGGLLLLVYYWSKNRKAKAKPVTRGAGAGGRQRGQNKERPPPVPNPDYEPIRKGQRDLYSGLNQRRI

B1: scDb3-43xCD3-scFv3-43 (bispecific antibody)
chain: QLQQSGPGLVKPSQTLSLTCAISGDSVSSNRAAWNWIRQSPSRGLEWLGRTYYRSKWYNDYAQSLKSRITINPDTPKNQFSLQLNSVTPEDTAVYYCARDGQLGLDALDIWGQGTMVTVSSGGGGSDIQMTQSPSSLSASVGDRVTITCRASQDIRNYLNWYQQKPGKAPKLLIYYTSRLHSGVPSRFSGSGSGTDFTFTISSLQPEDIATYYCQQGNTLPWTFGQGTKLEIKRGGGGSGGGGSGGGGSQVQLVQSGAEVKKPGSSVKVSCKASGGTFSGYTMNWVRQAPGQGLEWMGLINPYKGVSTYNGKFKDRVTITADKSTSTAYMELSSLRSEDTAVYYCARSGYYGDSDWYFDVWGQGTLVTVSSGGGGSQAGLTQPPAVSVAPGQTASITCGRDNIGSRSVHWYQQKPGQAPVLVVYDDSDRPAGIPERFSGSNYENTATLTISRVEAGDEADYYCQVWGITSDHVVFGGGTKLTVLAAAGGSGGGGSGGGTQVQLQQSGPGLVKPSQTLSLTCAISGDSVSSNRAAWNWIRQSPSRGLEWLGRTYYRSKWYNDYAQSLKSRITINPDTPKNQFSLQLNSVTPEDTAVYYCARDGQLGLDALDIWGQGTMVTVSSGGGGSGGGGSGGGGSQAGLTQPPAVSVAPGQTASITCGRDNIGSRSVHWYQQKPGQAPVLVVYDDSDRPAGIPERFSGSNYENTATLTISRVEAGDEADYYCQVWGITSDHVVFGGGTKLTVLGSLHHHHHH
notes: Trivalent: two sites for HER3, one for CD3; also called scDb-scFv; scDb3-43xhuU3-scFv3-43
- EC50 [1]: 0.81 nM
- IL-2 release of PBMC with HER3-expressing MCF-7 cells (EC50) [2]: 0.29 nM
- killing of MCF-7 cells by PBMC, MTT assay (EC50) [2]: 0.034 nM
- EC50 [3]: 4.2 nM
- EC50 [4]: 0.0316 nM and 0.0314 nM
- EC50 [5]: 13.2 nM

B2: IgG 2-35 (antibody, V domains shown)
VH: QMQLVQSGAEVKKPGESLKISCKGSGYSFTSYWIGWVRQMPGKGLEWMGIIYPGDSDTRYSPSFQGQVTISADKSISTAYLQWSSLKASDTAMYYCARLGRSGSYYNYGMDVWGQGTTVTVSS
VL: QAVVTQEPSFSVSPGGTVTLTCGLSSGSVSSSYYPSWYQQTSGQPPRTLIYSTDTRSSGVPDRFSGSILGDKAALTITGAQADDESDYYCMLYMGSGISVFGGGTKLAVL
notes: Anti-HER2 antibody found by phage display
- EC50 (HER2-ECD protein): ~1.5 nM

B3: scDb 3-43xCD3 (bispecific antibody)
chain: QLQQSGPGLVKPSQTLSLTCAISGDSVSSNRAAWNWIRQSPSRGLEWLGRTYYRSKWYNDYAQSLKSRITINPDTPKNQFSLQLNSVTPEDTAVYYCARDGQLGLDALDIWGQGTMVTVSSGGGGSDIQMTQSPSSLSASVGDRVTITCRASQDIRNYLNWYQQKPGKAPKLLIYYTSRLHSGVPSRFSGSGSGTDFTFTISSLQPEDIATYYCQQGNTLPWTFGQGTKLEIKRGGGGSGGGGSGGGGSQVQLVQSGAEVKKPGSSVKVSCKASGGTFSGYTMNWVRQAPGQGLEWMGLINPYKGVSTYNGKFKDRVTITADKSTSTAYMELSSLRSEDTAVYYCARSGYYGDSDWYFDVWGQGTLVTVSSGGGGSQAGLTQPPAVSVAPGQTASITCGRDNIGSRSVHWYQQKPGQAPVLVVYDDSDRPAGIPERFSGSNYENTATLTISRVEAGDEADYYCQVWGITSDHVVFGGGTKLTVLAAAHHHHHH
notes: also called scDb3-43xhuU3
- EC50 [1]: 3.3 nM and 4.87 nM
- IL-2 release of PBMC with HER3-expressing Colo205 cells (EC50) [2]: 0.3 nM
- IL-2 release of PBMC with HER3-expressing MCF-7 cells (EC50) [2]: 0.48 nM
- killing of MCF-7 cells by PBMC, MTT assay (EC50) [2]: 0.084 nM
- EC50 [3]: 2.4 nM
- EC50 [4]: 1.1 nM
- EC50 [5]: 3.1 nM

B4: Db3-43xhu225-Ig (bispecific antibody, human IgG1, kappa)
light: QVQLQQSGPGLVKPSQTLSLTCAISGDSVSSNRAAWNWIRQSPSRGLEWLGRTYYRSKWYNDYAQSLKSRITINPDTPKNQFSLQLNSVTPEDTAVYYCARDGQLGLDALDIWGQGTMVTVSSGGGGSDIQLTQSPSFLSASVGDRVTITCRASQSIGTNIHWYQQKPGKAPKLLIKYASESISGVPSRFSGSGSGTEFTLTISSLQPEDFATYYCQQNNNWPTTFGAGTKLEIKRTVAAPSVFIFPPSDEQLKSGTASVVCLLNNFYPREAKVQWKVDNALQSGNSQESVTEQDSKDSTYSLSSTLTLSKADYEKHKVYACEVTHQGLSSPVTKSFNRGEC
heavy: EVQLVESGGGLVQPGGSLRLSCAASGFSLTNYGVHWVRQAPGKGLEWLGVIWSGGNTDYNTPFTSRFTISRDNSKNTLYLQMNSLRAEDTAVYYCARALTYYDYEFAYWGQGTTVTVSSGGGGSQAGLTQPPAVSVAPGQTASITCGRDNIGSRSVHWYQQKPGQAPVLVVYDDSDRPAGIPERFSGSNYENTATLTISRVEAGDEADYYCQVWGITSDHVVFGGGTKLTVLASTKGPSVFPLAPSSKSTSGGTAALGCLVKDYFPEPVTVSWNSGALTSGVHTFPAVLQSSGLYSLSSVVTVPSSSLGTQTYICNVNHKPSNTKVDKKVEPKSCDKTHTCPPCPAPPVAGPSVFLFPPKPKDTLMISRTPEVTCVVVDVSHEDPEVKFNWYVDGVEVHNAKTKPREEQYNSTYRVVSVLTVLHQDWLNGKEYKCKVSNKGLPSSIEKTISKAKGQPREPQVYTLPPSRDELTKNQVSLTCLVKGFYPSDIAVEWESNGQPENNYKTTPPVLDSDGSFFLYSKLTVDKSRWQQGNVFSCSVMHEALHNHYTQKSLSLSPGK
notes: Light chain VH3-43xVLhu225-CL, heavy chain VHhu225xVLhu3-43-CH1-CH2-CH3; two sites for EGFR and two for HER3; also called Db-Ig; bispecific and tetravalent diabody-Ig fusion protein
- EC50 (EGFR on tumor cells [6]): 0.14 nM
- EC50 [7]: 0.26 nM
- EC50 [8]: 0.85 nM
- EC50 [9]: 0.054 nM
- EC50 (EGFR on tumor cells [10]): 0.047 nM
- EC50 [11]: 0.047 nM

B5: scFv 3-43 (scFv)
scFv: QVQLQQSGPGLVKPSQTLSLTCAISGDSVSSNRAAWNWIRQSPSRGLEWLGRTYYRSKWYNDYAQSLKSRITINPDTPKNQFSLQLNSVTPEDTAVYYCARDGQLGLDALDIWGQGTMVTVSSGGGGSGGGGSGGGGSQAGLTQPPAVSVAPGQTASITCGRDNIGSRSVHWYQQKPGQAPVLVVYDDSDRPAGIPERFSGSNYENTATLTISRVEAGDEADYYCQVWGITSDHVVFGGGTKLTVLG
- binding result [12]: binds
